Test results from paper PMC3462001.

Target: Gab1 (UniProt Q9QYY0)
Experiment: co-immunoprecipitation, immunoblot
Conditions: reference: wild-type PAR3 with PAR1b; sites S144,S873

binding against the reference: stronger
Substance: PAR3 (from UniProt Q8TEW0) PAR3 S144A/S873A with PAR1b
